Test results: paper PMC11948756, “The molecular properties of the bHLH TCF4 protein as an intrinsically disordered hub transcription factor” (Cell Communication and Signaling : CCS, 2025)

Target: the molecule itself
Test: native gel or EMSA + SEC + AUC; free TCF4 and TCF4 with E-box dsDNA; buffer S (20 mM Tris-HCl, 150 mM NaCl, 2 mM TCEP, pH 7.5); SV-AUC at 20 °C, 2.5, 5.0 and 7.5 µM dTCF4, molecular weight fixed at that of the dimer (96.5 kDa); SEC on Superdex 200 Increase 10/300; native PAGE on 5% gel in 0.5 x TBE at 4 °C

B1: Transcription factor 4 (TCF4), human isoform I- (natural protein, UniProt P15884-16 1-451, looked up)
chain: MQDGHHSSDPWSSSSGMNQPGYAGMLGNSSHIPQSSSYCSLHPHERLSYPSHSSADINSSLPPMSTFHRSGTNHYSTSSCTPPANGTDSIMANRGSGAAGSSQTGDALGKALASIYSPDHTNNSFSSNPSTPVGSPPSLSAGTAVWSRNGGQASSSPNYEGPLHSLQSRIEDRLERLDDAIHVLRNHAVGPSTAMPGGHGDMHGIIGPSHNGAMGGLGSGYGTGLLSANRHSLMVGTHREDGVALRGSHSLLPNQVPVPQLPVQSATSPDLNPPQDPYRGMPPGLQGQSVSSGSSEIKSDDEGDENLQDTKSSEDKKLDDDKKDIKSITSNNDDEDLTPEQKAEREKERRMANNARERLRVRDINEAFKELGRMVQLHLKSDKPQTKLLILHQAVAVILSLEQQVRERNLNPKAACLKRREEEKVSSEPPPLSLAGPHPGMGDASNHMGQM
notes: Transcription factor 4 (TCF4), human, isoform I- (UniProt P15884-16), full length; lacks amino acids 1-216 of the canonical isoform B- (P15884-1); bHLH domain at residues 348-401; dimer 96.5 kDa; numbers count on: isoform I- (P15884-16); cDNA synthesised and codon-optimised, cloned into pET-SUMO; also called TCF4 I-; dTCF4 (dimeric TCF4); source: E. coli ArcticExpress, purified (Ni-NTA with 6 M …)
binding result: binds
